Test results from patent publication US20040102610A1 (Genentech, published 2004).
One block for each molecule: values may come before it.

Key:
GST-hSu(fu) = molecular target: T1, GST-hSu(fu) (UniProt Q9UMX1)
T1 sequence: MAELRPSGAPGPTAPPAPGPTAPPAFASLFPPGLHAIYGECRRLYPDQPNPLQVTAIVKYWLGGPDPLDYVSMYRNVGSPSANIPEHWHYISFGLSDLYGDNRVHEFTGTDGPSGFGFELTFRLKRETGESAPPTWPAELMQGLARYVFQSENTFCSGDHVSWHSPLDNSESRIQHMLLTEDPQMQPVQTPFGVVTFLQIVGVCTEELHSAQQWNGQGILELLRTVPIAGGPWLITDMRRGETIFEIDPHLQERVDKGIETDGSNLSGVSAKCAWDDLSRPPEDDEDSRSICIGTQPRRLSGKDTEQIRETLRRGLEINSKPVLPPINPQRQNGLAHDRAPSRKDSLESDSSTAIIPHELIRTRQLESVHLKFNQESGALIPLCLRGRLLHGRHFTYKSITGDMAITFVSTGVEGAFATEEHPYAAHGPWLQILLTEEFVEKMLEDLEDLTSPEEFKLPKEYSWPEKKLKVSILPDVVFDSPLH

hfused C-Flag = molecular target: T2, hfused C-Flag (human, UniProt Q9NRP7 1-1315); assay: 293 cells, anti-Myc or anti-Flag IP, immunoblot
T2 construct: also called human fused C-Flag
T2 sequence: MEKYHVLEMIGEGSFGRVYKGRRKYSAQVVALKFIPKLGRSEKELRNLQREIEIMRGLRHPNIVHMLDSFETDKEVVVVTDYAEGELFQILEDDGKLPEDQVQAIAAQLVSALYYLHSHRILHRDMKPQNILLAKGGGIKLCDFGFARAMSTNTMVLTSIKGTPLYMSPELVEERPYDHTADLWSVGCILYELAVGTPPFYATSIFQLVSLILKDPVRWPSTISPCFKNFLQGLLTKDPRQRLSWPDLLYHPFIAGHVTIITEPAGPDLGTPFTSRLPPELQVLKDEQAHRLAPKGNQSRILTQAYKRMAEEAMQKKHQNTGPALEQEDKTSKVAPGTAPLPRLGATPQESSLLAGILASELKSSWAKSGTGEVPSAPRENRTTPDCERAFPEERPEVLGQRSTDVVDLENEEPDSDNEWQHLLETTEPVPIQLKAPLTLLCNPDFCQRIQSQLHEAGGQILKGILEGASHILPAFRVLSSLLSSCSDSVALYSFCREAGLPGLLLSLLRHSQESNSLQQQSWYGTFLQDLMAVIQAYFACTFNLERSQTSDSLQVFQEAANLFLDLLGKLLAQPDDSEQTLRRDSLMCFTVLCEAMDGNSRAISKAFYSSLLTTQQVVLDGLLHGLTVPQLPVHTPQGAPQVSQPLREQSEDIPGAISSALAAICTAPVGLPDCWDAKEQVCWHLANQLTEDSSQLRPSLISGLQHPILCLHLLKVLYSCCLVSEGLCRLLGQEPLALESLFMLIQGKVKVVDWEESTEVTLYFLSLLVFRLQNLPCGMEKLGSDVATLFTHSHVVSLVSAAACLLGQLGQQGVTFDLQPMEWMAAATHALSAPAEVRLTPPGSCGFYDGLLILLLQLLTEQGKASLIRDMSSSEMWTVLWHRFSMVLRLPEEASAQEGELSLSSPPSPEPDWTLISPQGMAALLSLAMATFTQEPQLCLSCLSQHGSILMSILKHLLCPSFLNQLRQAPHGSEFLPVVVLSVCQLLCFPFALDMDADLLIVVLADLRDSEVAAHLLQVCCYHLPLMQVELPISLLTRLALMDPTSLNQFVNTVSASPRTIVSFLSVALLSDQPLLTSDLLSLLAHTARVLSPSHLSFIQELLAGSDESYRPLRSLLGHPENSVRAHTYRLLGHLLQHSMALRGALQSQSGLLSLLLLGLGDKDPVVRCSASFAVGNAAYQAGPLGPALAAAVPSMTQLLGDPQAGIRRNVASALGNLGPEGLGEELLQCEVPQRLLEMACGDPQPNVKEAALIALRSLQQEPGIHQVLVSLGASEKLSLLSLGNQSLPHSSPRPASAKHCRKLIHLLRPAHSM
Description: (§1) FIG. 14 describes the biochemical interaction of hFu, hSu(fu) and hGli-1. FIG. 14(A) depicts the interaction of hFu with hSu(fu) in mammalian cells. 293 cells were transfected with hfused and hSu(fu) C-Flag or hfused C-Flag and hSu(fu) C-Myc either alone or in combination. Cell lysates were subjected to anti-Flag immunoprecipitation, and co-precipitating proteins were detected by immunoblotting. FIG. 14(B) depicts the interaction of hfused with hGli-1 in mammalian cells. 293 cells were transfected with hfused C-Flag or N-Myc hGli-1 both alone or in combination, and immunoprecipitated with anti-Myc or anti-Flag antibodies. Proteins were detected by immunoblotting. […] 293 cells were transfected with N-Myc hGli-1, hSu(fu) C-Flag and increasing amounts of hfused. The amount of hfused and hSu(fu) bound to hGli-1 was determined by anti-Myc immunoprecipitation and immunoblotting. Protein expression was analyzed by immunoblotting aliquots of total cell lysates (bottom panel).
(§2) For immunoprecipitation experiments human embryonic kidney 293 cells or C3H10T1/2 cells (ATCC 226-CCL) were transiently transfected with the various expression plasmids in 10 cm plates with lipofectamine (Gibco […]). For every transfection, the total amount of DNA was normalized with an expression plasmid encoding EGFP. […]

human fused = molecular target: T3, human fused (human, UniProt Q9NRP7 1-1315); assay: FIG. 14C: 293 cells transfected with N-Myc hGli-1, hSu(fu) C-Flag and increasing amounts of hfused
T3 construct: The same id is used for endogenous human fused of 293 cells in the GST-hSu(fu) pull-down; also called hfused; hFu
T3 sequence: T2 sequence
Description: as §1, §2

Molecule: purified PKAc (Upstate biotechnology)
- in vitro kinase assay with [γ-32P]ATP (GST-hSu(fu)): when tested in vitro, GST-hSu(fu) was highly phosphorylated by purified PKAc

- binding result (hfused C-Flag): binds
- binding result (human fused): binds
B1: N-Myc hGli-1 (other, human, UniProt P08151 1-1106, looked up, not shown: small tags and cut ends)
chain: MFNSMTPPPISSYGEPCCLRPLPSQGAPSVGTEGLSGPPFCHQANLMSGPHSYGPARETNSCTEGPLFSSPRSAVKLTKKRALSISPLSDASLDLQTVIRTSPSSLVAFINSRCTSPGGSYGHLSIGTMSPSLGFPAQMNHQKGPSPSFGVQPCGPHDSARGGMIPHPQSRGPFPTCQLKSELDMLVGKCREEPLEGDMSSPNSTGIQDPLLGMLDGREDLEREEKREPESVYETDCRWDGCSQEFDSQEQLVHHINSEHIHGERKEFVCHWGGCSRELRPFKAQYMLVVHMRRHTGEKPHKCTFEGCRKSYSRLENLKTHLRSHTGEKPYMCEHEGCSKAFSNASDRAKHQNRTHSNEKPYVCKLPGCTKRYTDPSSLRKHVKTVHGPDAHVTKRHRGDGPLPRAPSISTVEPKREREGGPIREESRLTVPEGAMKPQPSPGAQSSCSSDHSPAGSAANTDSGVEMTGNAGGSTEDLSSLDEGPCIAGTGLSTLRRLENLRLDQLHQLRPIGTRGLKLPSLSHTGTTVSRRVGPPVSLERRSSSSSSISSAYTVSRRSSLASPFPPGSPPENGASSLPGLMPAQHYLLRARYASARGGGTSPTAASSLDRIGGLPMPPWRSRAEYPGYNPNAGVTRRASDPAQAADRPAPARVQRFKSLGCVHTPPTVAGGGQNFDPYLPTSVYSPQPPSITENAAMDARGLQEEPEVGTSMVGSGLNPYMDFPPTDTLGYGGPEGAAAEPYGARGPGSLPLGPGPPTNYGPNPCPQQASYPDPTQETWGEFPSHSGLYPGPKALGGTYSQCPRLEHYGQVQVKPEQGCPVGSDSTGLAPCLNAHPSEGPPHPQPLFSHYPQPSPPQYLQSGPYTQPPPDYLPSEPRPCLDFDSPTHSTGQLKAQLVCNYVQSQQELLWEGGGREDAPAQEPSYQSPKFLGGSQVSPSRAKAPVNTYGPGFGPNLPNHKSGSYPTPSPCHENFVVGANRASHRAAAPPRLLPPLPTCYGPLKVGGTNPSCGHPEVGRLGGGPALYPPPEGQVCNPLDSLDLDNTQLDFVAILDEPQGLSPPPSHDQRGSSGHTPPPSGPPNMAVGNMSVLLRSLPGETEFLNSSA
notes: Expressed in C3H10T1/2 or 293 cells; also called human Gli-1
